Assay results from patent publication US8173600 (CHIESI FARMACEUTICI S P A, dated 2012).
Numbered stars: 1 amine (or outer) side, 2 acyl side, 3 side chain; on linkers, the order of the positions; unused ones are H or OH. Square brackets hold non-standard residues; d marks the D form. * marks the point of attachment. 2,6‑difluorophenyl ester = C-terminal 2,6-difluorophenyl ester (dfp), Fc1cccc(F)c1O*; Asp(OMe) = aspartyl methyl ester, COC(=O)C[C@H](N[*:1])C(=O)[*:2]; Quinaldoyl = O=C(c1ccc2ccccc2n1)*

Biological target: T1, human recombinant caspase-2 (human, UniProt P42575 170-452, limits assumed)
T1 sequence (looked up): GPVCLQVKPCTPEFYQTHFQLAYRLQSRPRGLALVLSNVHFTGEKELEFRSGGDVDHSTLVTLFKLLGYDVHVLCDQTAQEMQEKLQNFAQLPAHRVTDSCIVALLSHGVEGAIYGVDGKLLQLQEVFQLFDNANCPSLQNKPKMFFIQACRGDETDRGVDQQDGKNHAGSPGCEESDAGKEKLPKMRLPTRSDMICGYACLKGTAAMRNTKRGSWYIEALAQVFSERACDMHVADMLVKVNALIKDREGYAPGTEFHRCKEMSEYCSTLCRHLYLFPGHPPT
Test: cell-based or functional assay

B1: 2-Quinolinylcarbonyl-L-Valinyl-L-Aspartyl (methyl ester)-L-Valinyl-L-Alanyl-L-Aspartyl (methyl ester) 2,6-difluorophenyl ester (peptide)
peptide: Quinaldoyl-V[Asp(OMe)]VA[Asp(OMe)]-{2,6‑difluorophenyl ester}
SMILES: COC(=O)C[C@H](NC(=O)[C@@H](NC(=O)c1ccc2ccccc2n1)C(C)C)C(=O)N[C@H](C(=O)N[C@@H](C)C(=O)N[C@@H](CC(=O)OC)C(=O)Oc1c(F)cccc1F)C(C)C
IC50 (in vitro inhibition of human recombinant caspase-2): 80 nM
